How the values were obtained:
Assay in all cases: SPOT array
[1] = target: T1, Abp1, P15891; settings: median of control spots 935
T1 sequence (P15891 535-592, looked up): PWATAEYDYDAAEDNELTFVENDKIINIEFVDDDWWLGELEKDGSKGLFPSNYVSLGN

[2] = target: T2, Bbc1, P47068; settings: median of control spots 796
T2 sequence (P47068 1-78, looked up): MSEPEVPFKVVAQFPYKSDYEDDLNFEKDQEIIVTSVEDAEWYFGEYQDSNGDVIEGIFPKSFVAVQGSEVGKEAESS

[3] = target: Bem1-1, P29366; settings: median of control spots 4282
[4] = target: Bem1-2, P29366; settings: median of control spots 4347
[5] = target: T3, Boi1, P38041; settings: median of control spots 1162
T3 sequence (P38041 1-86, looked up): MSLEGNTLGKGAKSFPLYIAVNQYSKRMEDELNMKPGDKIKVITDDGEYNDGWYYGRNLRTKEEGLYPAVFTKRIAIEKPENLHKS

[6] = target: T4, Boi2, P39969; settings: median of control spots 1161
T4 sequence (P39969 32-116, looked up): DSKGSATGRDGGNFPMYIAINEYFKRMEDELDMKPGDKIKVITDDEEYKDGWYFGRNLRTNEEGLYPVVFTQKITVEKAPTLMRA

[7] = target: T5, Bud14, P27637; settings: median of control spots 956
T5 sequence (P27637 247-328, looked up): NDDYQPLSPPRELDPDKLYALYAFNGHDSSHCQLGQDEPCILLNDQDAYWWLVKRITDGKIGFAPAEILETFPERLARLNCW

[8] = target: T6, Bzz1-1, P38822; settings: median of control spots 4446
T6 sequence (P38822 478-572, looked up): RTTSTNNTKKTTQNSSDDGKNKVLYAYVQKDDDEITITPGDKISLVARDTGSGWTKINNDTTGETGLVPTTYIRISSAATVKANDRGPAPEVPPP

[9] = target: T7, Bzz1-2, P38822; settings: median of control spots 4538
T7 sequence (P38822 568-633, looked up): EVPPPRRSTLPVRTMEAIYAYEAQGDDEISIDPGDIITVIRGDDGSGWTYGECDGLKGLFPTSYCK

[10] = target: T8, Cdc25, P04821; settings: median of control spots 969
T8 sequence (P04821 50-136, looked up): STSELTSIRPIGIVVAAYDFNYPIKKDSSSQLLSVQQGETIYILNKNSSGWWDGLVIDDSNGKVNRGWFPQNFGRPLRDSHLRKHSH

[11] = target: T9, Cyk3, Q07533; settings: median of control spots 1451
T9 sequence (Q07533 1-83, looked up): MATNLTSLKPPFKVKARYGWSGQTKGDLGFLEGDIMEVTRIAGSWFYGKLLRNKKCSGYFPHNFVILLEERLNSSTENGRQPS

[12] = target: T10, Fus1, P11710; settings: median of control spots 1200
T10 sequence (P11710 432-512, looked up): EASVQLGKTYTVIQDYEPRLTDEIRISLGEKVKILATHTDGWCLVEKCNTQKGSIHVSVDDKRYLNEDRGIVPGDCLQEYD

[13] = target: GST; settings: median of control spots 978
[14] = target: T11, Hof1, Q05080; settings: median of control spots 4086
T11 sequence (Q05080 590-669, looked up): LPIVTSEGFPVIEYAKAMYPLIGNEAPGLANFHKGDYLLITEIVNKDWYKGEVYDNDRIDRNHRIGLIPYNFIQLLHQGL

[15] = target: T12, Hse1, P38753; settings: median of control spots 1727
T12 sequence (P38753 208-285, looked up): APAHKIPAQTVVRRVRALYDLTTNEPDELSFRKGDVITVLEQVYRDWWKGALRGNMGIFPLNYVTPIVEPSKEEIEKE

[16] = target: T13, Lsb1, P53281; settings: median of control spots 388
T13 sequence (P53281 45-122, looked up): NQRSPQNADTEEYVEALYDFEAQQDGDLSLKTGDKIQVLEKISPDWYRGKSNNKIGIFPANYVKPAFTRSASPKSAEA

[17] = target: T14, Lsb3, P43603; settings: median of control spots 406
T14 sequence (P43603 385-451, looked up): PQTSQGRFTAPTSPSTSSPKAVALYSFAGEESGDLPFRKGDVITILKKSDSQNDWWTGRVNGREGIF

[18] = target: T15, Lsb4, P32793; settings: median of control spots 397
T15 sequence (P32793 402-468, looked up): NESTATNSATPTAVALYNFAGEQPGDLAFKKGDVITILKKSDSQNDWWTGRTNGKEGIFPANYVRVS

[19] = target: Myo3, P36006; settings: median of control spots 468
[20] = target: T16, Myo5, Q04439; settings: median of control spots 471
T16 sequence (Q04439 1072-1160, looked up): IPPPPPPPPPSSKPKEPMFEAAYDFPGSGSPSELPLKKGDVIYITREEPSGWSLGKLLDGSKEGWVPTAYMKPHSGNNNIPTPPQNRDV

[21] = target: T17, Nbp2, Q12163; settings: median of control spots 357
T17 sequence (Q12163 103-180, looked up): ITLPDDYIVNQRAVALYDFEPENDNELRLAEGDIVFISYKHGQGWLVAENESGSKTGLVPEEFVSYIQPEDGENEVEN

[22] = target: T18, Pex13, P80667; settings: median of control spots 1341
T18 sequence (P80667 295-386, looked up): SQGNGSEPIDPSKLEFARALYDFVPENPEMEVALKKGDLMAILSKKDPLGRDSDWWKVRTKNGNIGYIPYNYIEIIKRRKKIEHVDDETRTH

[23] = target: T19, Pin3, Q06449; settings: median of control spots 2171
T19 sequence (Q06449 53-122, looked up): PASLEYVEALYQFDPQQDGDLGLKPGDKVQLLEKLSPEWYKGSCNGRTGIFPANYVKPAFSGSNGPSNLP

[24] = target: Rvs167, P39743; settings: median of control spots 2707
[25] = target: Sho1, P40073; settings: median of control spots 1148
[26] = target: T20, Sla1-2, P32790; settings: median of control spots 712
T20 sequence (P32790 60-140, looked up): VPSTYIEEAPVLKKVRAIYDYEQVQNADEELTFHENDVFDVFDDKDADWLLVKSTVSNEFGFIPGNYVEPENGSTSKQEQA

[27] = target: T21, Sla1-3, P32790; settings: median of control spots 5475
T21 sequence (P32790 344-424, looked up): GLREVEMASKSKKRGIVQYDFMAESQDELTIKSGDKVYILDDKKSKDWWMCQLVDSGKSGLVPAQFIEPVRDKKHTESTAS

Chain of Sho1, P40073 (P40073 287-367): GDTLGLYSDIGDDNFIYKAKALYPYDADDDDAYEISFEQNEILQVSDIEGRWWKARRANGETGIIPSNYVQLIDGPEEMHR
Chain of Rvs167, P39743 (P39743 419-482): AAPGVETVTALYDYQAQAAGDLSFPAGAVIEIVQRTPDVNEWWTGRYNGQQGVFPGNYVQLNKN
Chain of Bem1-1, P29366 (P29366 55-141): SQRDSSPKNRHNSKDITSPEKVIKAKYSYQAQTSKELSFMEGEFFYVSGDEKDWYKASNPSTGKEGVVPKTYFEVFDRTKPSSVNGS
Chain of Bem1-2, P29366 (P29366 139-227): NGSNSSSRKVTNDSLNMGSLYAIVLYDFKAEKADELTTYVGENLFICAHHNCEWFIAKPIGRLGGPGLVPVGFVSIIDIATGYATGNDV

Binder | SPOT intensity [1] | SPOT intensity [2] | SPOT intensity [3] | SPOT intensity [4] | SPOT intensity [5] | SPOT intensity [6] | SPOT intensity [7] | SPOT intensity [8] | SPOT intensity [9] | SPOT intensity [10] | SPOT intensity [11] | SPOT intensity [12] | SPOT intensity [13] | SPOT intensity [14] | SPOT intensity [15] | SPOT intensity [16] | SPOT intensity [17] | SPOT intensity [18] | SPOT intensity [19] | SPOT intensity [20] | other results
RKQRSIPLSPIVPES | 48 | 1 | 0 | 0 | 1 | 1 | 1 | 0 | 5 | 1 | 0 | 17 | 1 | 0 | 0 | 2 | 6 | 9 | 4 | 2 | SPOT intensity [21]: 0; SPOT intensity [22]: 2; SPOT intensity [23]: 7; SPOT intensity [24]: 0; SPOT intensity [25]: 49; SPOT intensity [26]: 0; SPOT intensity [27]: 17
RSRRSSFAYPQQVAI | 28 | 24 | 0 | 0 | 1 | 0 | 3 | 1 | 1 | 10 | 0 | 26 | 0 | 4 | 5 | 0 | 2 | 0 | 8 | 0 | SPOT intensity [21]: 0; SPOT intensity [22]: 4; SPOT intensity [23]: 8; SPOT intensity [24]: 2; SPOT intensity [25]: 64; SPOT intensity [26]: 1; SPOT intensity [27]: 29
PSRRDSLSIPRAVDA | 8 | 0 | 0 | 0 | 0 | 1 | 0 | 0 | 0 | 0 | 1 | 0 | 2 | 0 | 0 | 1 | 1 | 0 | 3 | 2 | SPOT intensity [21]: 0; SPOT intensity [22]: 1; SPOT intensity [23]: 11; SPOT intensity [24]: 0; SPOT intensity [25]: 13; SPOT intensity [26]: 0; SPOT intensity [27]: 0
TKIRRRPQQPLTDFT | 121 | 190 | 0 | 1 | 1 | 1 | 24 | 0 | 6 | 27 | 1 | 6 | 2 | 0 | 1 | 30 | 4 | 8 | 14 | 2 | SPOT intensity [21]: 2; SPOT intensity [22]: 3; SPOT intensity [23]: 11; SPOT intensity [24]: 1; SPOT intensity [25]: 120; SPOT intensity [26]: 1; SPOT intensity [27]: 20
